Source: publication PMC9132996

What follows are substances tested on PutA (proline utilization A) (Ralstonia solanacearum GMI1000) (assay: MST). Conditions: room temperature 30 min, buffer not stated.

Row | Substance | Kd [nM]
1 | solI promoter 324 bp | 12.7
2 | epsA promoter 336 bp | 10.7
3 | trpEG promoter 291 bp | 17.1
4 | phcB promoter 327 bp | 13
